This note sets out measurements from patent publication US20070258972A1, “Combination of a Histone Deacetylase Inhibitor with a Death Receptor Ligand” (priority 2003, published 2007).

The test deals with Primary AML cells. As to the kind of experiment: Apoptosis of primary AML cells by annexin V staining and flow cytometry. The settings on record: for % of Apoptosis: LAQ824 100 nM and/or Apo-2L/TRAIL 100 ng/mL, 24 hours. The class given is cell-based, human. The source says:
Jurkat T cell leukemia and SKW6.4 B lymphoblast cells are obtained from American Tissue Culture Collection (Manassas, Va.). HL-60/Bcl-2 cells with ectopic over-expression of Bcl-2 and the control HL-60/Neo cells are created and maintained in culture as previously described. Primary leukemia blasts from six patients with AML in relapse are harvested, as previously described, from the peripheral blood or bone marrow after informed consent, as a part of a protocol study sanctioned by the local Institutional Review Board. The purity of leukemia blasts in the samples prior to culture in LAQ824 and/or Apo-2L/TRAIL was at least 80% or more, as determined by morphologic evaluation after Wright staining.
After drug treatments, cells are resuspended in 100 μL of the staining solution containing annexin-V fluorescein and propidium iodide in a HEPES buffer (Annexin-V-FLUOS Staining Kit, Boehringer-Mannheim, and Indianapolis, Ind.). Following incubation at room temperature for 15 minutes, annexin V positive cells are estimated by flow cytometry, as previously described.
On the technique in general: In flow cytometry, cells or beads pass a laser one at a time.

B1: Apo-2L/TRAIL: recombinant human trimeric form of Apo-2L/TRAIL from Genentech, Inc., produced in E. coli (protein, UniProt P50591 1-281, looked up)
Tumor necrosis factor ligand …: MAMMEVQGGPSLGQTCVLIVIFTVLLQSLCVAVTYVYFTNELKQMQDKYSKSGIACFLKEDDSYWDPNDEESMNSPCWQVKWQLRQLVRKMILRTSEETISTVQEKQQNISPLVRERGPQRVAAHITGTRGRSNTLSSPNSKNEKALGRKINSWESSRSGHSFLSNLHLRNGELVIHEKGFYYIYSQTYFRFQEEIKENTKNDKQMVQYIYKYTSYPDPILLMKSARNSCWSKDAEYGLYSIYQGGIFELKENDRIFVSVTNEHLIDMDHEASFFGAFLVG
modifications: trimeric
notes: recombinant human trimeric form of Apo-2L/TRAIL from Genentech, Inc., produced in E. coli
As for B1, the “% of Apoptosis” value was 7.6% (Patient 1 primary AML cells, control 7.0); 14.0% (Patient 2 primary AML cells, control 12.0); 8.6% (Patient 3 primary AML cells, control 8.0); 11.0% (Patient 4 primary AML cells, control 10.0); 6.8% (Patient 5 primary AML cells, control 6.0); 8.1% (Patient 6 primary AML cells, control 7.0). Further, the “apoptosis of primary AML blasts (in words)” value (six samples, relapsed AML, Apo-2L/TRAIL 100 ng/mL, LAQ824 100 nM) was “resistant”.
